Reference: patent US20190225658A1

Experiments:
[1] = molecular target: Kir3.1/Kir3.4 channel; test: cell-based or functional assay
[2] = molecular target: Kir3.1/Kir3.4 channel; test: flow cytometry dose response curve of binding on HEK cells stably transfected with Kir3.1/3.4
[3] = molecular target: Kir3.1/Kir3.4 channel; test: flow cytometry, HEK cells stably transfected with Kir3.1/3.4, labeled with 10 nM; unlabeled cells 162 A.U.

Sequence of Kir3.1/Kir3.4 channel (P48549 whole entry, chain 1 of 2): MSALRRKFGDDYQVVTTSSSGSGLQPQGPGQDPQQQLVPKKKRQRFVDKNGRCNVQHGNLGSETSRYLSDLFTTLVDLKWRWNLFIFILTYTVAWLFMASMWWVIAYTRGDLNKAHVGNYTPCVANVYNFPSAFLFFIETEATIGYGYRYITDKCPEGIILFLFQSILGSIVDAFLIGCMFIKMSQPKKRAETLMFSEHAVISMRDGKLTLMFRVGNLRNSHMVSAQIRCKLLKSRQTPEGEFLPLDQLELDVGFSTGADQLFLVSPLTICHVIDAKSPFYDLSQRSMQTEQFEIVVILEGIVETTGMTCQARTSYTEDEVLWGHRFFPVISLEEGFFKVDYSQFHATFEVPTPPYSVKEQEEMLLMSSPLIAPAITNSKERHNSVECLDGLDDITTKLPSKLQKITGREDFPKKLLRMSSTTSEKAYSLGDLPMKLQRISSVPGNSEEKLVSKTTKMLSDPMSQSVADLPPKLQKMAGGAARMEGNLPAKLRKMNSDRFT
Sequence of Kir3.1/Kir3.4 channel (P48544 whole entry, chain 2 of 2, further chain): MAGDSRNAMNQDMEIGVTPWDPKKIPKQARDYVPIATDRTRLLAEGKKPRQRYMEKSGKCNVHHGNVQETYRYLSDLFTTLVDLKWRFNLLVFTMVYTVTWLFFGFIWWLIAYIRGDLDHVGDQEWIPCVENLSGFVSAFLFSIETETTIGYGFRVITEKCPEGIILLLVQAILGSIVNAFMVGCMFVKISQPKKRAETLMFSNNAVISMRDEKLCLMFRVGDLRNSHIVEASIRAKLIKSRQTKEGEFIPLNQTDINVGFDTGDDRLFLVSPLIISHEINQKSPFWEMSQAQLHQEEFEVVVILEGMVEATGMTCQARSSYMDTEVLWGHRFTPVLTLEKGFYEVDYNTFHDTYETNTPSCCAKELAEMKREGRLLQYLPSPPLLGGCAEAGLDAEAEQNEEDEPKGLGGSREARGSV

Substance	IKACh block, patch clamp, dose response curve [1]	IC50 [2]	median fluorescence [3]
TertiapinQ (peptide)	70 nM	–	–
TertiapinQ labeled with ATT0633 (peptide)	–	11 nM	3840 A.U.
TertiapinQ peptibody (Fc fusion)	16 nM	–	–
